In patent US10500249B2, “Compositions and methods for preventing or treating diseases, conditions, or processes characterized by aberrant fibroblast proliferation and extracellular matrix deposition” (MOERAE MATRIX, INC., priority 2014, dated 2019):

Columns and labels:
Test in all cases: Kinase Profiling Assay
Assay type in all cases: biochemical
Settings in all cases: 100 μM
cKit(V654A) (h) = biological target: T1, cKit(V654A) (h) (Homo sapiens, UniProt P10721, V654A)
T1 construct: purchased Millipore
Outline: (§1)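 Activity remaining relative to an uninhibited control was determined by scintillation counting of labeled substrate bound to a negatively charged filter. Radiolabeled phosphate came from ATP; the substrate carried positive charge. Duplicate measurements, within a 266-kinase human panel.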

Fms (h) = Fms (h) (Homo sapiens, UniProt P07333)
Outline: as §1

PKCτ (h) = biological target: T2, PKCτ (h) (Homo sapiens, UniProt P41743)
T2 sequence (P41743 1-596): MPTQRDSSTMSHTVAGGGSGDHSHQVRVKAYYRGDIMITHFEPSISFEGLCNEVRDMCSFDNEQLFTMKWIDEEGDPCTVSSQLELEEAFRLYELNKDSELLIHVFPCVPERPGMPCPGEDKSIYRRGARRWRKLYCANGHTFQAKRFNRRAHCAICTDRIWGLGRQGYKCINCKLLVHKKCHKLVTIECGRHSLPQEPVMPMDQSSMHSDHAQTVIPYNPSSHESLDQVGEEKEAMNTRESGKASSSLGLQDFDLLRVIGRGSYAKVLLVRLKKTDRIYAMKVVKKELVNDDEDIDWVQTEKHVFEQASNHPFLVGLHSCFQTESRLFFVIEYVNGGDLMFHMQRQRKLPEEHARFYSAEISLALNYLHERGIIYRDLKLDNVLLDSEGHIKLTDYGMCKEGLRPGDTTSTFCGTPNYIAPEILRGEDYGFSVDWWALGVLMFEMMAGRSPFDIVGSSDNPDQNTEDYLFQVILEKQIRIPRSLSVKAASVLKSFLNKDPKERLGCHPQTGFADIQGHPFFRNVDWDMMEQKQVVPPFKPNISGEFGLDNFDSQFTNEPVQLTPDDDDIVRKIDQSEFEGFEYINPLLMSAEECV
Outline: as §1

TAO2 (h) = biological target: T3, TAO2 (h) (Homo sapiens, UniProt Q9UL54)
T3 sequence (Q9UL54 1-1235): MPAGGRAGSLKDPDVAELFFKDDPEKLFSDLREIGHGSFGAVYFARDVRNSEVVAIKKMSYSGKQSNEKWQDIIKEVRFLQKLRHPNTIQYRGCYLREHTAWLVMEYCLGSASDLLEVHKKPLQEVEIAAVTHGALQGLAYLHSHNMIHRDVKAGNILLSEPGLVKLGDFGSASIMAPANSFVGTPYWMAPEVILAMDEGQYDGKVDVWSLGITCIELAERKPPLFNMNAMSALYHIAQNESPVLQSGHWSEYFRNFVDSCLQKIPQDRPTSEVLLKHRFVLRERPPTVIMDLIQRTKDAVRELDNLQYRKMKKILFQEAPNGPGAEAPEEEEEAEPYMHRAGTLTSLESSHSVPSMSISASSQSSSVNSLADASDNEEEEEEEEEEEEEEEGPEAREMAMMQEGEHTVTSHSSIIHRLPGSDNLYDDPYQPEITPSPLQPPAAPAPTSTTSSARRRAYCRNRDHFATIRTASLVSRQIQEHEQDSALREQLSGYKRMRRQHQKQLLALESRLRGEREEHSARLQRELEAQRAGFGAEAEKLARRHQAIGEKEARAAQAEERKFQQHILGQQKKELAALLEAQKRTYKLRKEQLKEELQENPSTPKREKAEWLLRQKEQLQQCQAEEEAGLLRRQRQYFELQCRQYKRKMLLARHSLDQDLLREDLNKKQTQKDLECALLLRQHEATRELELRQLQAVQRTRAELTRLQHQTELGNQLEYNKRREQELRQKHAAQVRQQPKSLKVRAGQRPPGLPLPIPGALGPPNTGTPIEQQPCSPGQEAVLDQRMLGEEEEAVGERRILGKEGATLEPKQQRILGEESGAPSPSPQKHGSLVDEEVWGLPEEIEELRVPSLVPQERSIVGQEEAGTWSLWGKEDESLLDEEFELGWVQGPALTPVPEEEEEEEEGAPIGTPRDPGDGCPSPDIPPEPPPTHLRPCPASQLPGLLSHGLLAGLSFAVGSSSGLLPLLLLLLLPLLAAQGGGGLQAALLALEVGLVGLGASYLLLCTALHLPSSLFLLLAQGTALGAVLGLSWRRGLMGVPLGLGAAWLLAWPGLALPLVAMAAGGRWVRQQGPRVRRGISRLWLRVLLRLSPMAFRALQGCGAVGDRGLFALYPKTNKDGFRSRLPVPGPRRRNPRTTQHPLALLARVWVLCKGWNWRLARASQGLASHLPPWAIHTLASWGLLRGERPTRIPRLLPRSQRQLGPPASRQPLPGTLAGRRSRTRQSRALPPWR
Outline: as §1

Tec (h) activated = biological target: T4, Tec (h) activated (Homo sapiens, UniProt P42680)
T4 sequence (P42680 1-631): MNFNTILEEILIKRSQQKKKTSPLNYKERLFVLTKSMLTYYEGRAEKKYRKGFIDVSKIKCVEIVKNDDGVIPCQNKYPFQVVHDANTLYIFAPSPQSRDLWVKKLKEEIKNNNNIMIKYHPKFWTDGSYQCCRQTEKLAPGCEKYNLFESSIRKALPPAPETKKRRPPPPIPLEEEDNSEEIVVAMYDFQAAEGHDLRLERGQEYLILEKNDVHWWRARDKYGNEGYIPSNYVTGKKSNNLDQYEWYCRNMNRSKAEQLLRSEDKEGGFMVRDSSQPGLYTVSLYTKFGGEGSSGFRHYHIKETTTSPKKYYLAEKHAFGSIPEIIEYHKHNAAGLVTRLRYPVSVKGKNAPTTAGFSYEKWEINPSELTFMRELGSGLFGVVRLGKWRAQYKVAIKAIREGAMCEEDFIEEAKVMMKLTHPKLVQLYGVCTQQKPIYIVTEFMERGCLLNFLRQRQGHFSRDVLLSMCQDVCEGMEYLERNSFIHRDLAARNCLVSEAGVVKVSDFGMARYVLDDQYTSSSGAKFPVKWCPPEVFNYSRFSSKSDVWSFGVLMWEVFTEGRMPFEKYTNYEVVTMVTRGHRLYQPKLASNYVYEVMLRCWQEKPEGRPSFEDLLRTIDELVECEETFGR
Outline: as §1

Abl(Y253F) (h) = Abl(Y253F) (h) (Homo sapiens, UniProt P00519, Y253F)
Outline: as §1

| Sequence | % activity (cKit(V654A) (h)) | % activity (Fms (h)) | % activity (PKCτ (h)) | % activity (TAO2 (h)) | % activity (Tec (h) activated) | % activity (Abl(Y253F) (h)) |
| --- | --- | --- | --- | --- | --- | --- |
| FAKLAARLYRKALARQLGVAA [MMI-0300] | 134% | 45% | 68% | 70% | 56% | 86% |
| KAFAKLAARLYRKALARQLGVAA [MMI-0400] | 150% | 37% | 46% | 74% | 29% | 78% |
| YARAAARQARAKALNRQLGVA (Mammalian) [MMI-0200] |  | 92% | 97% | 93% | 77% |  |
| HRRIKAWLKKIKALARQLGVAA (Mammalian) [MMI-0500] | 223% | 14% | 7% | 15% | 33% | 29% |
